Assay results published in publication PMC10899662, “TopBP1 utilises a bipartite GINS binding mode to support genome replication” (Nature Communications, 2024).
Residues, ends and D or L forms follow the SMILES beside them. No end group written: not given here. *: point of attachment. 5FAM = O=C1OC2(c3ccc(O)cc3Oc3cc(O)ccc32)c2ccc(C(=O)*)cc21; Flu = fluorescein

Assays:
[1] = molecular target: GINS (6xHis-3xFlag-Sld5, Psf1, Psf2, Psf3) for pulldown experiments (UniProt Q9BRT9)
GINS tetramer = molecular target: T1, GINS tetramer (Homo sapiens, UniProt Q14691+Q9BRT9+Q9BRX5+Q9Y248); experiment: Fluorescence polarisation of fluorescein-labelled GINI-core peptides with GINS; format: binding; conditions: room temperature
T1 construct: made in house; host or cells: SF9 insect cells, single baculovirus made with pBig1a
From the text: As the predicted interface between the TopBP1-GINI region and GINS[32] was not evident in our cryo-EM map we used additional interaction experiments to validate a role for this motif in GINS binding. The GINI region had been loosely defined as sitting between TopBP1-BRCT3 and BRCT4 (Fig. 1a(i)). […] We mutated this core, and other regions of conservation, to generate the mutants TopBP1-Gcc (GINI centre core), Gcore (GINI core) and RI-III (regions I-III) (Fig. 3a, Supplementary Fig. 7). […] To test if this helix constituted a GINS-interaction surface, we used fluorescence polarisation (FP). A fluorescently labelled GINI-core peptide (Ala478-Gly497) bound the GINS tetramer with a dissociation constant of Kd of ~8 µM (Fig. 3d). […] We therefore concluded that the GINI region is a GINS interaction site in its own right, but with moderate binding affinity.
Fig. 3 The conserved core of the TopBP1-GINI domain is required for a stable interaction with GINS. a Domain model and T-COFFEE alignment (one-letter aa code) of TopBP1 proteins from humans (Q92547) Xenopus laevis (Q7ZZY3), Bos taurus (A0A3Q1LWE4) and Rattus norvegicus (A0A8I6GFZ6). […] Source data are provided as a Source data file. d Fluorescence polarisation measurements including dissociation constants (kD) calculations using recombinant GINS tetramer and fluorescently labelled TopBP1-GINI-core peptides (WT or Gpp (a)). […]

[2] = molecular target: T2, GINS (HIS-(3C)-Sld5, Psf1, Psf2, Psf3) for structural and fluorescence polarisation studies (UniProt Q9BRT9 1-223; Q14691 1-196; Q9Y248 1-185; Q9BRX5 1-216); experiment: fluorescence polarisation; 100 nM fluorescein-labelled peptide, increasing concentrations of GINS; 25 mM HEPES pH 7.5, 150 mM NaCl, 1 mM EDTA, 0.25 mM TCEP, 0.02% Tween 20; room temperature; conditions: both partners purified
T2 construct: Sld5 subunit of GINS; Psf1 subunit of GINS, with its B domain; Psf2 subunit of GINS; Psf3 subunit of GINS; A 3C site follows the His tag on Sld5; no cleavage is described; also called GINS tetramer; GINS complex; source: Sf9 insect cells, single baculovirus (pBig1a), purified (TALON, Superdex200); copies: + + +

GINS = experiment: Pulldown of recombinant TopBP1-BRCT0-5 by immobilised GINS, 150 mM NaCl; format: binding; conditions: summary of recombinant protein interaction tests (yes/no)
From the text: Fig. 1 GINS and TopBP1 interact. a (i) Domain model of human (hs) TopBP1, its conservation with BRCT1/2 and 3/4 domains (grey boxes) of budding yeast Dpb11 (scDpb11). Arrows point to binding domains for interacting proteins. (ii) Overview of TopBP1 wild type (WT) and BRCT deletion (Δ) and point mutants. GINS binding capabilities are labelled in red and green. Numbers, amino acid position; capital letters indicate amino acid substitutions. Amino acid substitutions of point mutants in BRCT4 (B4mut) and 5 (B5mut) are coloured orange. b Elution profiles of size exclusion chromatography (Superdex200) of individual recombinant TopBP1-BRCT0-5 protein (grey) and GINS tetramers (green), or of both upon incubation (blue). c Recombinant GINS immobilised on Flag-beads and control beads (Flag peptide-coupled beads) were used to pull down recombinant TopBP1-0-5-WT or TopBP1-ΔBRCT4/5 (compare a(ii)). SDS gels were silver stained. kDa specifies molecular weight marker bands. The experiment was done more than three times with similar results. Source data are provided as a Source data file. TEXT PRINTED IN THE PICTURE: (a) BRCT0-5-WT: GINS binding? (rec. proteins): yes | (a) ΔBRCT4/5: GINS binding? (rec. proteins): no | (a) ΔBRCT3: GINS binding? (rec. proteins): yes | (a) ΔBRCT0/1/2: GINS binding? (rec. proteins): yes | (a) B5mut: GINS binding? (rec. proteins): yes | (a) B4mut: GINS binding? (rec. proteins): no
Fig. 2 Protein structure of the GINS-TopBP1-BRCT4/5 complex. a Structural model of the GINS-TopBP1-BRCT4/5 complex. Crystal structures of the GINS subunits (PDB:2E9X) (shades of green, yellow), and the central BRCT4/5 domain of TopBP1 (PDB:3UEN) (grey) were docked into the cryo-EM volume shown as transparent volume. b Zoom-in of the BRCT4-Psf1 interface. The residues in stick representation appear crucial for the interface. Mutations to break the interaction are coloured pink (Psf1-I97R) and purple (TopBP1-B4mut; compare Fig. 1a(ii)). c Pulldown of the indicated recombinant TopBP1-BRCT0-5-strep versions (see Fig. 1a(ii)) by Flag-beads-immobilised recombinant GINS or Flag peptide-coupled control beads. Analysis was done by immunoblotting. The experiment was done more than three times with similar results. d Pulldown of the indicated recombinant TopBP1-BRCT0-5-WT-strep using immobilised GINS-WT or GINS carrying a Ile97 to arginine mutation in Psf1.TopBP1-Gcc/B4mut-strep (Figs. 1a(ii) and 3a) was used as a non-GINS binding control. The experiment was done twice with similar results. Source data are provided as a Source data file.
Fig. 3 The conserved core of the TopBP1-GINI domain is required for a stable interaction with GINS. a Domain model and T-COFFEE alignment (one-letter aa code) of TopBP1 proteins from humans (Q92547) Xenopus laevis (Q7ZZY3), Bos taurus (A0A3Q1LWE4) and Rattus norvegicus (A0A8I6GFZ6). Coloured boxes indicate GINI region mutants in sub-regions I (blue), II (green) and III (orange), and in the GINI core helix (red) (details in Supplementary Fig. 7). Amino acid substitutions, names of GINI core region mutations and corresponding GINS binding capabilities are shown. ., : and * indicate low conservation, high conservation and identical amino acids, respectively. b/c Pulldown of recombinant TopBP1-BRCT0-5-strep-WT or the indicated GINI region mutants (a) by bead-immobilised GINS or Flag peptide-coupled control beads. Analysis was done by immunoblotting. The experiments were done more than three times with similar results. Source data are provided as a Source data file. d Fluorescence polarisation measurements including dissociation constants (kD) calculations using recombinant GINS tetramer and fluorescently labelled TopBP1-GINI-core peptides (WT or Gpp (a)). For each peptide n = 3 independent experiments and data are presented as mean values +/−SEM. TEXT PRINTED IN THE PICTURE: (a) TopBP1-Gcc: GINS binding? (rec. proteins): no | (a) TopBP1-Gcore: GINS binding? […]

GINS complex = experiment: Size exclusion chromatography co-elution with GINS; format: binding; conditions: Superdex200; 20 µM of each component; 10 mM HEPES pH 7.5, 150 mM NaCl, 0.5 mM TCEP
Experimental: Recombinant TopBP1 and GINS proteins were mixed in an equimolar ratio to give a final concentration of 20 µM of each component and incubated on ice for at least 30 min prior to application to a Superdex200increase 10 300 column (GE Healthcare, Little Chalfont, UK) equilibrated in 10 mM HEPES pH 7.5, 150 mM NaCl, 0.5 mM TCEP.

T1 sequence (Q14691 whole entry): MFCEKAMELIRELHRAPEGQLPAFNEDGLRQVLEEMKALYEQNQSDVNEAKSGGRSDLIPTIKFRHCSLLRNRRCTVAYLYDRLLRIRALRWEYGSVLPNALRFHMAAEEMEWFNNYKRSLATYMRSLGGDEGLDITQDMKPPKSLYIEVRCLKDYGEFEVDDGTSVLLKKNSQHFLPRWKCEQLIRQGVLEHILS
T1 sequence (Q9BRX5 whole entry): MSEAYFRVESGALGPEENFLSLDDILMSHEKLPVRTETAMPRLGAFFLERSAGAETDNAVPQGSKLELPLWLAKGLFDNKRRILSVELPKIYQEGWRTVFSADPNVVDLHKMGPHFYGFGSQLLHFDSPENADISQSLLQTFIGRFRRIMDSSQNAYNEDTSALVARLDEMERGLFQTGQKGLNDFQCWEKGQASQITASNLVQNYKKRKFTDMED
T1 sequence (Q9Y248 whole entry partner): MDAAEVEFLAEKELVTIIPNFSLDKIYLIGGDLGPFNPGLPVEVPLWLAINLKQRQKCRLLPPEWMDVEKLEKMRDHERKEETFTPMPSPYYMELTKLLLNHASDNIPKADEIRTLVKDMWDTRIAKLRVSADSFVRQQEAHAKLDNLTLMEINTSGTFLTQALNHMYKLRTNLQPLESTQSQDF
T1 sequence (Q9BRT9 whole entry partner): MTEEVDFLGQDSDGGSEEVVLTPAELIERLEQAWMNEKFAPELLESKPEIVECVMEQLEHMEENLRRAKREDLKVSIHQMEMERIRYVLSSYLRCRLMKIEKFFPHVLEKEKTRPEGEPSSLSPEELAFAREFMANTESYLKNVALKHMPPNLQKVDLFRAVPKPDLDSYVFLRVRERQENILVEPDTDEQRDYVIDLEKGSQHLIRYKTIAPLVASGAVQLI
T2 sequence (Q9BRT9 whole entry, chain 1 of 4): as the sequence (Q9BRT9 whole entry partner) above
T2 sequence (Q14691 whole entry, chain 2 of 4): as the sequence (Q14691 whole entry) above
T2 sequence (Q9Y248 whole entry, chain 3 of 4): as the sequence (Q9Y248 whole entry partner) above
T2 sequence (Q9BRX5 whole entry, chain 4 of 4): as the sequence (Q9BRX5 whole entry) above
Sequence of GINS (6xHis-3xFlag-Sld5, Psf1, Psf2, Psf3) for pulldown experiments (Q9BRT9 whole entry, chain 1 of 4): as the sequence (Q9BRT9 whole entry partner) above
Sequence of GINS (6xHis-3xFlag-Sld5, Psf1, Psf2, Psf3) for pulldown experiments (Q14691 whole entry, chain 2 of 4, further chain): as the sequence (Q14691 whole entry) above
Sequence of GINS (6xHis-3xFlag-Sld5, Psf1, Psf2, Psf3) for pulldown experiments (Q9Y248 whole entry, chain 3 of 4, further chain): as the sequence (Q9Y248 whole entry partner) above
Sequence of GINS (6xHis-3xFlag-Sld5, Psf1, Psf2, Psf3) for pulldown experiments (Q9BRX5 whole entry, chain 4 of 4, further chain): as the sequence (Q9BRX5 whole entry) above

Molecule: TopBP1-BRCT0-5-Gcc (from UniProt Q92547 1-766) (domain or fragment)
- reduction of nucleotide incorporation (α-32P-dCTP) in TopBP1-depleted Xenopus egg extract after add-back, 120 min time point [1]: 21%

Molecule: Flu-GYGAPSEKHEQADEDPPSQYENG [TOPBP1(478-497) L490P L491P, fluorescein-labelled GINI-core peptide with LL to PP mutation]
- binding to GINS by fluorescence polarisation (GINS tetramer; peptide 100 nM, 150 mM NaCl, n = 3): failed to bind

Molecule: CC(C)C[C@H](NC(=O)[C@H](CC(=O)O)NC(=O)[C@H](CCC(=O)O)NC(=O)[C@H](CC(=O)O)NC(=O)[C@H](C)NC(=O)[C@H](CCC(N)=O)NC(=O)[C@H](CCC(=O)O)NC(=O)[C@H](Cc1c[nH]cn1)NC(=O)[C@H](CCCCN)NC(=O)[C@H](CCC(=O)O)NC(=O)[C@H](CO)NC(=O)[C@@H]1CCCN1C(=O)[C@H](C)NC(=O)CNC(=O)[C@H](Cc1ccc(O)cc1)NC(=O)CNC(=O)c1ccc2c(c1)C(=O)OC21c2ccc(O)cc2Oc2cc(O)ccc21)C(=O)N[C@@H](CC(C)C)C(=O)N[C@@H](CO)C(=O)N[C@@H](CCC(N)=O)C(=O)N[C@@H](Cc1ccc(O)cc1)C(=O)N[C@@H](CCC(=O)O)C(=O)N[C@@H](CC(N)=O)C(=O)NCC(=O)O [TOPBP1(478-497)] (5FAM-GYGAPSEKHEQADEDLLSQYENG-OH)
- Kd (GINS tetramer; fluorescein-labelled peptide 100 nM, increasing GINS, 25 mM HEPES pH 7.5, 150 mM NaCl, 1 mM EDTA, 0.25 mM TCEP, 0.02% Tween 20, n = 3 independent experiments, interval printed in figure (7.037 - 8.809), read-out: dissociation constant Kd (fluorescence polarisation)): 7.88 µM

B1: fluorescently labelled GINI-core peptide (Ala478-Gly497), WT (peptide)
peptide: Flu-GYGAPSEKHEQADEDLLSQYENG
modifications: not fully specified; printed as Flu-GYGAPSEKHEQADEDLLSQYENG
notes: three residues printed before the TopBP1 stretch Ala478-Gly497; human TopBP1 GINI core, Ala478-Gly497; also called TopBP1-GINI-core peptide WT; source: synthetic peptide (Peptide Protein Research Ltd)
- Kd [2]: ~8 µM

B2: TopBP1-ΔBRCT0/1/2: TopBP1-BRCT0-5 with BRCT0-2 module removed (protein)
chain: NSLNSKLEPTLENLENLDVSAFQAPEDLLDGCRIYLCGFSGRKLDKLRRLINSGGGVRFNQLNEDVTHVIVGDYDDELKQFWNKSAHRPHVVGAKWLLECFSKGYMLSEEPYIHANYQPVEIPVSHKPESKAALLKKKNSSFSKKDFAPSEKHEQADEDLLSQYENGSSTVVEAKTSEARPFNDSTHAEPLNDSTHISLQEENQSSVSHCVPDVSTITEEGLFSQKSFLVLGFSNENESNIANIIKENAGKIMSLLSRTVADYAVVPLLGCEVEATVGEVVTNTWLVTCIDYQTLFDPKSNPLFTPVPVMTGMTPLEDCVISFSQCAGAEKESLTFLANLLGASVQEYFVRKSNAKKGMFASTHLILKERGGSKYEAAKKWNLPAVTIAWLLETARTGKRADESHFLIENSTKEERSLETEITNGINLNSDTAEHP
modifications: left off: His, N-terminal, state not stated | Strep, C-terminal, state not stated
notes: TopBP1-BRCT0-5 with BRCT0-2 module removed
- GINS binding? (rec. proteins) (GINS): yes
- co-elution with GINS from size exclusion column (GINS complex): did not affect binding
